The values that follow are results of earlier work, collected in publication PMC3648593.

The data set deals with Met (Homo sapiens) (UniProt P08581).
Sequence of UniProt P08581 (P08581 25-932): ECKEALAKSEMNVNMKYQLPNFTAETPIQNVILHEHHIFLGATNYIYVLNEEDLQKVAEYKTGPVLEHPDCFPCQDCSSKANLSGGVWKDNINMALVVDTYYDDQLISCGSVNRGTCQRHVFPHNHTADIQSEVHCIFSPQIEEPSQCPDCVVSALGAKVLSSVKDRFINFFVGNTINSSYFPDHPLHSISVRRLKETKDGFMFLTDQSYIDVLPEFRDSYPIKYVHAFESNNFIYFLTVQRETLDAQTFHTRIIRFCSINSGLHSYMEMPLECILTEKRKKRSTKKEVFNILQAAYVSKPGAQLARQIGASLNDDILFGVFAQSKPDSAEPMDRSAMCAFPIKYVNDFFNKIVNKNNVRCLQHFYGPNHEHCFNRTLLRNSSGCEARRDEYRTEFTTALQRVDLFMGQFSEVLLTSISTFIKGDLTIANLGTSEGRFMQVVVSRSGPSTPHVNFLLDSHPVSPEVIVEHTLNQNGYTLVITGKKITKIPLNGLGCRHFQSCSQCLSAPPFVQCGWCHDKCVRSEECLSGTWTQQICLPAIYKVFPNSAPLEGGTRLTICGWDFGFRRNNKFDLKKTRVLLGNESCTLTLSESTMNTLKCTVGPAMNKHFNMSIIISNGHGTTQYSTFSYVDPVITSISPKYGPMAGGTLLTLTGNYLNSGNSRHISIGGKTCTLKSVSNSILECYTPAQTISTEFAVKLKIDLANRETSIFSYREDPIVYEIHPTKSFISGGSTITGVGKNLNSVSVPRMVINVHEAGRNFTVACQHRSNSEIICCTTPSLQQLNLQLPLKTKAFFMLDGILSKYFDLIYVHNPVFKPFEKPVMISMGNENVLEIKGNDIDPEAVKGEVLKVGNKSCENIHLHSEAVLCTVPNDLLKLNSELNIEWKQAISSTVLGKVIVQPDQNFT

As usually defined, the Kd is the equilibrium constant for the complex coming apart. With Decorin (from UniProt P07585), the Kd was 2 nM.
